Measurements from the Human Domainome abundance scans (Beltran et al. 2025).
± gives the uncertainty stated by the source.

B1: GAS2-like protein 1, residues 209 to 276; numbered along this chain, Q99501 (parent)
chain: DELVREILGRCTCPDQFPMIKVSEGKYRVGDSSLLIFVRVLRSHVMVRVGGGWDTLEHYLDKHDPCRC

Variants of: B1
Test: abundance fitness (aPCA) (normalised: wild type 0, dead -1); higher = more abundant; growth selection in yeast, the domain comes from the species named
Details: Homo sapiens

Variant | abundance fitness
DELVREILGRCTCPDQFPMIKVSEGKYRVGDSYLLIFVRVLRSHVMVRVGGGWDTLEHYLDKHDPCRC | -0.413 ± 0.065
DELVREILGRCTCPDQFPMIKVSEGKYRVGDSCLLIFVRVLRSHVMVRVGGGWDTLEHYLDKHDPCRC | -0.115 ± 0.048
DELVREILGRCTCPDQFPMIKVSEGKYRVGDSMLLIFVRVLRSHVMVRVGGGWDTLEHYLDKHDPCRC | -0.074 ± 0.054
DELVREILGRCTCPDQFPMIKVSEGKYRVGDSQLLIFVRVLRSHVMVRVGGGWDTLEHYLDKHDPCRC | 0.051 ± 0.067
DELVREILGRCTCPDQFPMIKVSEGKYRVGDSPLLIFVRVLRSHVMVRVGGGWDTLEHYLDKHDPCRC | 0.01 ± 0.047
DELVREILGRCTCPDQFPMIKVSEGKYRVGDSLLLIFVRVLRSHVMVRVGGGWDTLEHYLDKHDPCRC | -0.194 ± 0.046
DELVREILGRCTCPDQFPMIKVSEGKYRVGDSKLLIFVRVLRSHVMVRVGGGWDTLEHYLDKHDPCRC | 0.028 ± 0.068
DELVREILGRCTCPDQFPMIKVSEGKYRVGDSILLIFVRVLRSHVMVRVGGGWDTLEHYLDKHDPCRC | -0.856 ± 0.17
DELVREILGRCTCPDQFPMIKVSEGKYRVGDSWLLIFVRVLRSHVMVRVGGGWDTLEHYLDKHDPCRC | -0.637 ± 0.099
DELVREILGRCTCPDQFPMIKVSEGKYRVGDSNLLIFVRVLRSHVMVRVGGGWDTLEHYLDKHDPCRC | 0.113 ± 0.054
DELVREILGRCTCPDQFPMIKVSEGKYRVGDSFLLIFVRVLRSHVMVRVGGGWDTLEHYLDKHDPCRC | -0.549 ± 0.11
DELVREILGRCTCPDQFPMIKVSEGKYRVGDSVLLIFVRVLRSHVMVRVGGGWDTLEHYLDKHDPCRC | -0.647 ± 0.061
DELVREILGRCTCPDQFPMIKVSEGKYRVGDSRLLIFVRVLRSHVMVRVGGGWDTLEHYLDKHDPCRC | -0.043 ± 0.039
DELVREILGRCTCPDQFPMIKVSEGKYRVGDSELLIFVRVLRSHVMVRVGGGWDTLEHYLDKHDPCRC | 0.113 ± 0.057
DELVREILGRCTCPDQFPMIKVSEGKYRVGDSHLLIFVRVLRSHVMVRVGGGWDTLEHYLDKHDPCRC | 0.014 ± 0.077
DELVREILGRCTCPDQFPMIKVSEGKYRVGDSALLIFVRVLRSHVMVRVGGGWDTLEHYLDKHDPCRC | -0.019 ± 0.043
DELVREILGRCTCPDQFPMIKVSEGKYRVGDSDLLIFVRVLRSHVMVRVGGGWDTLEHYLDKHDPCRC | 0.039 ± 0.057
DELVREILGRCTCPDQFPMIKVSEGKYRVGDSTLLIFVRVLRSHVMVRVGGGWDTLEHYLDKHDPCRC | -0.182 ± 0.058
DELVREILGRCTCPDQFPMIKVSEGKYRVGDSSLFIFVRVLRSHVMVRVGGGWDTLEHYLDKHDPCRC | -0.187 ± 0.06
DELVREILGRCTCPDQFPMIKVSEGKYRVGDSSLGIFVRVLRSHVMVRVGGGWDTLEHYLDKHDPCRC | -0.383 ± 0.075
DELVREILGRCTCPDQFPMIKVSEGKYRVGDSSLCIFVRVLRSHVMVRVGGGWDTLEHYLDKHDPCRC | -0.013 ± 0.053
DELVREILGRCTCPDQFPMIKVSEGKYRVGDSSLHIFVRVLRSHVMVRVGGGWDTLEHYLDKHDPCRC | -0.247 ± 0.1
DELVREILGRCTCPDQFPMIKVSEGKYRVGDSSLAIFVRVLRSHVMVRVGGGWDTLEHYLDKHDPCRC | -0.111 ± 0.051
DELVREILGRCTCPDQFPMIKVSEGKYRVGDSSLEIFVRVLRSHVMVRVGGGWDTLEHYLDKHDPCRC | 0.099 ± 0.087
DELVREILGRCTCPDQFPMIKVSEGKYRVGDSSLDIFVRVLRSHVMVRVGGGWDTLEHYLDKHDPCRC | -0.003 ± 0.071
DELVREILGRCTCPDQFPMIKVSEGKYRVGDSSLIIFVRVLRSHVMVRVGGGWDTLEHYLDKHDPCRC | 0.069 ± 0.074
DELVREILGRCTCPDQFPMIKVSEGKYRVGDPSLLIFVRVLRSHVMVRVGGGWDTLEHYLDKHDPCRC | -0.121 ± 0.056

Variant | abundance fitness
DELVREILGRCTCPDQFPMIKVSEGKYRVGDESLLIFVRVLRSHVMVRVGGGWDTLEHYLDKHDPCRC | 0.013 ± 0.056
DELVREILGRCTCPDQFPMIKVSEGKYRVGDMSLLIFVRVLRSHVMVRVGGGWDTLEHYLDKHDPCRC | -0.252 ± 0.06
DELVREILGRCTCPDQFPMIKVSEGKYRVGDYSLLIFVRVLRSHVMVRVGGGWDTLEHYLDKHDPCRC | -0.455 ± 0.096
DELVREILGRCTCPDQFPMIKVSEGKYRVGDTSLLIFVRVLRSHVMVRVGGGWDTLEHYLDKHDPCRC | -0.026 ± 0.063
DELVREILGRCTCPDQFPMIKVSEGKYRVGDHSLLIFVRVLRSHVMVRVGGGWDTLEHYLDKHDPCRC | -0.16 ± 0.074
DELVREILGRCTCPDQFPMIKVSEGKYRVGDGSLLIFVRVLRSHVMVRVGGGWDTLEHYLDKHDPCRC | -0.085 ± 0.047
DELVREILGRCTCPDQFPMIKVSEGKYRVGDFSLLIFVRVLRSHVMVRVGGGWDTLEHYLDKHDPCRC | -0.749 ± 0.11
DELVREILGRCTCPDQFPMIKVSEGKYRVGDNSLLIFVRVLRSHVMVRVGGGWDTLEHYLDKHDPCRC | -0.071 ± 0.05
DELVREILGRCTCPDQFPMIKVSEGKYRVGDASLLIFVRVLRSHVMVRVGGGWDTLEHYLDKHDPCRC | -0.064 ± 0.046
DELVREILGRCTCPDQFPMIKVSEGKYRVGDISLLIFVRVLRSHVMVRVGGGWDTLEHYLDKHDPCRC | -0.755 ± 0.16
DELVREILGRCTCPDQFPMIKVSEGKYRVGDVSLLIFVRVLRSHVMVRVGGGWDTLEHYLDKHDPCRC | -0.596 ± 0.073
DELVREILGRCTCPDQFPMIKVSEGKYRVGDQSLLIFVRVLRSHVMVRVGGGWDTLEHYLDKHDPCRC | -0.044 ± 0.061
DELVREILGRCTCPDQFPMIKVSEGKYRVGDRSLLIFVRVLRSHVMVRVGGGWDTLEHYLDKHDPCRC | -0.142 ± 0.04
DELVREILGRCTCPDQFPMIKVSEGKYRVGDKSLLIFVRVLRSHVMVRVGGGWDTLEHYLDKHDPCRC | -0.175 ± 0.053
DELVREILGRCTCPDQFPMIKVSEGKYRVGDDSLLIFVRVLRSHVMVRVGGGWDTLEHYLDKHDPCRC | 0.098 ± 0.053
DELVREILGRCTCPDQFPMIKVSEGKYRVGDWSLLIFVRVLRSHVMVRVGGGWDTLEHYLDKHDPCRC | -0.892 ± 0.19
DELVREILGRCTCPDQFPMIKVSEGKYRVGMSSLLIFVRVLRSHVMVRVGGGWDTLEHYLDKHDPCRC | -0.148 ± 0.057
DELVREILGRCTCPDQFPMIKVSEGKYRVGGSSLLIFVRVLRSHVMVRVGGGWDTLEHYLDKHDPCRC | -0.066 ± 0.04
DELVREILGRCTCPDQFPMIKVSEGKYRVGFSSLLIFVRVLRSHVMVRVGGGWDTLEHYLDKHDPCRC | -0.303 ± 0.21
DELVREILGRCTCPDQFPMIKVSEGKYRVGRSSLLIFVRVLRSHVMVRVGGGWDTLEHYLDKHDPCRC | -0.087 ± 0.06
DELVREILGRCTCPDQFPMIKVSEGKYRVGCSSLLIFVRVLRSHVMVRVGGGWDTLEHYLDKHDPCRC | -0.146 ± 0.074
DELVREILGRCTCPDQFPMIKVSEGKYRVGNSSLLIFVRVLRSHVMVRVGGGWDTLEHYLDKHDPCRC | 0.084 ± 0.064
DELVREILGRCTCPDQFPMIKVSEGKYRVGYSSLLIFVRVLRSHVMVRVGGGWDTLEHYLDKHDPCRC | -0.181 ± 0.065
DELVREILGRCTCPDQFPMIKVSEGKYRVGKSSLLIFVRVLRSHVMVRVGGGWDTLEHYLDKHDPCRC | -0.162 ± 0.062
DELVREILGRCTCPDQFPMIKVSEGKYRVGHSSLLIFVRVLRSHVMVRVGGGWDTLEHYLDKHDPCRC | 0.039 ± 0.1
DELVREILGRCTCPDQFPMIKVSEGKYRVGASSLLIFVRVLRSHVMVRVGGGWDTLEHYLDKHDPCRC | -0.06 ± 0.046
DELVREILGRCTCPDQFPMIKVSEGKYRVGQSSLLIFVRVLRSHVMVRVGGGWDTLEHYLDKHDPCRC | 0.048 ± 0.098

Variant | abundance fitness
DELVREILGRCTCPDQFPMIKVSEGKYRVGESSLLIFVRVLRSHVMVRVGGGWDTLEHYLDKHDPCRC | 0.007 ± 0.061
DELVREILGRCTCPDQFPMIKVSEGKYRVGSSSLLIFVRVLRSHVMVRVGGGWDTLEHYLDKHDPCRC | -0.07 ± 0.049
DELVREILGRCTCPDQFPMIKVSEGKYRVGPSSLLIFVRVLRSHVMVRVGGGWDTLEHYLDKHDPCRC | -0.066 ± 0.09
DELVREILGRCTCPDQFPMIKVSEGKYRVGTSSLLIFVRVLRSHVMVRVGGGWDTLEHYLDKHDPCRC | 0.059 ± 0.05
DELVREILGRCTCPDQFPMIKVSEGKYRVGWSSLLIFVRVLRSHVMVRVGGGWDTLEHYLDKHDPCRC | -0.153 ± 0.11
DELVREILGRCTCPDQFPMIKVSEGKYRVGISSLLIFVRVLRSHVMVRVGGGWDTLEHYLDKHDPCRC | -0.144 ± 0.06
DELVREILGRCTCPDQFPMIKVSEGKYRVGVSSLLIFVRVLRSHVMVRVGGGWDTLEHYLDKHDPCRC | -0.146 ± 0.042
DELVREILGRCTCPDQFPMIKVSEGKYRVGLSSLLIFVRVLRSHVMVRVGGGWDTLEHYLDKHDPCRC | -0.141 ± 0.047
DELVREILGRCTCPDQFPMIKVSEGKYRVGDSSCLIFVRVLRSHVMVRVGGGWDTLEHYLDKHDPCRC | 0.129 ± 0.065
DELVREILGRCTCPDQFPMIKVSEGKYRVGDSSGLIFVRVLRSHVMVRVGGGWDTLEHYLDKHDPCRC | 0.135 ± 0.035
DELVREILGRCTCPDQFPMIKVSEGKYRVGDSSILIFVRVLRSHVMVRVGGGWDTLEHYLDKHDPCRC | 0.102 ± 0.063
DELVREILGRCTCPDQFPMIKVSEGKYRVGDSSDLIFVRVLRSHVMVRVGGGWDTLEHYLDKHDPCRC | 0.379 ± 0.1
DELVREILGRCTCPDQFPMIKVSEGKYRVGDSSVLIFVRVLRSHVMVRVGGGWDTLEHYLDKHDPCRC | 0.103 ± 0.047
DELVREILGRCTCPDQFPMIKVSEGKYRVGDSSYLIFVRVLRSHVMVRVGGGWDTLEHYLDKHDPCRC | -0.015 ± 0.074
DELVREILGRCTCPDQFPMIKVSEGKYRVGDSSWLIFVRVLRSHVMVRVGGGWDTLEHYLDKHDPCRC | -0.085 ± 0.043
DELVREILGRCTCPDQFPMIKVSEGKYRVGDSSMLIFVRVLRSHVMVRVGGGWDTLEHYLDKHDPCRC | 0.131 ± 0.048
DELVREILGRCTCPDQFPMIKVSEGKYRVGDSSSLIFVRVLRSHVMVRVGGGWDTLEHYLDKHDPCRC | 0.154 ± 0.039
DELVREILGRCTCPDQFPMIKVSEGKYRVGDSSELIFVRVLRSHVMVRVGGGWDTLEHYLDKHDPCRC | 0.316 ± 0.048
DELVREILGRCTCPDQFPMIKVSEGKYRVGDSSNLIFVRVLRSHVMVRVGGGWDTLEHYLDKHDPCRC | 0.094 ± 0.083
DELVREILGRCTCPDQFPMIKVSEGKYRVGDSSTLIFVRVLRSHVMVRVGGGWDTLEHYLDKHDPCRC | 0.05 ± 0.047
DELVREILGRCTCPDQFPMIKVSEGKYRVGDSSRLIFVRVLRSHVMVRVGGGWDTLEHYLDKHDPCRC | -0.312 ± 0.043
DELVREILGRCTCPDQFPMIKVSEGKYRVGDSSALIFVRVLRSHVMVRVGGGWDTLEHYLDKHDPCRC | 0.191 ± 0.043
DELVREILGRCTCPDQFPMIKVSEGKYRVGDSSQLIFVRVLRSHVMVRVGGGWDTLEHYLDKHDPCRC | 0.238 ± 0.063
DELVREILGRCTCPDQFPMIKVSEGKYRVGDSSFLIFVRVLRSHVMVRVGGGWDTLEHYLDKHDPCRC | -0.124 ± 0.1
DELVREILGRCTCPDQFPMIKVSEGKYRVGDSSHLIFVRVLRSHVMVRVGGGWDTLEHYLDKHDPCRC | 0.112 ± 0.12
